The test has as its target Cyno Gal-3 (Macaca fascicularis). As to the kind of experiment: SPR; kinetic fit, which the text calls poor for the monkey sample; immobilised partner and concentrations not given.

This note sets out measurements from US20260034233A1.

B1: SIF001 (antibody, V domains shown)
VH: QVQLVQSGSELKKPGASVKVSCKASGYTFTNYGMNWVRQAPGQGLEWMGWINTYTGEPTYADDFKGRFVFSLDTSVSTAYLQISSLKNEDMAVYFCARYAMDYWGQGTLVTVSS
VL: EAVVTQEPSLTVSPGGTVTLTCRSSTGAVTTSNYANWVQQKPGQAFTGLIGGTSNRAPGTPARFSGSLLGDKAALTLLGAQPEDEAEYFCALWYSTHYVFGGGTKLTVL
B1 returned an equilibrium dissociation constant (Kd) of 64.1 nM.
